US20140087995A1 (published 2014)
Numbered stars: 1 amine (or outer) side, 2 acyl side, 3 side chain; on linkers, the order of the positions; unused ones are H or OH. Bridge positions count the residues as written; N and C are the ends. Side chains are listed from the residue outwards. Ends that are not written are not given here. * marks the point of attachment. C20 diacid = O=C(O)CCCCCCCCCCCCCCCCCCC(=O)*; γGlu = O=C(O)[C@H](CCC(=O)[*:2])N[*:1]

T1: human amylin receptor (amylin 3(a) receptor: human calcitonin receptor coexpressed with RAMP-3) (human, UniProt P30988 25-474; O60896 24-148)
T1 sequence (looked up) 1: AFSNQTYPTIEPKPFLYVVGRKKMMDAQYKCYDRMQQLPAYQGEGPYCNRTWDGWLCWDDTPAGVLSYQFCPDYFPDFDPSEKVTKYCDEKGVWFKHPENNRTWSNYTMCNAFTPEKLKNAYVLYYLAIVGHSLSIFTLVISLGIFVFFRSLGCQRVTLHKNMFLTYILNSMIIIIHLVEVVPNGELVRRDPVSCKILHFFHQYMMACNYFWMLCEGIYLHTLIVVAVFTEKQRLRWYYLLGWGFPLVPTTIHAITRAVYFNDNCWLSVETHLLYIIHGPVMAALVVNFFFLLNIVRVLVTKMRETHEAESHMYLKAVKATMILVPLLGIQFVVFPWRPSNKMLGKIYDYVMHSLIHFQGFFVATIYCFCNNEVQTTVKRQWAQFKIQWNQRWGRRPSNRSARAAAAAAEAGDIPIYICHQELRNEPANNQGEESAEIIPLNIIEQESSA
T1 sequence (looked up) 2: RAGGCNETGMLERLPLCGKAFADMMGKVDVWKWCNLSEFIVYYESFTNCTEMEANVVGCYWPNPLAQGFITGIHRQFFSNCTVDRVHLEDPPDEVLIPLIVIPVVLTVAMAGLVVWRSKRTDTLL

T2: human calcitonin receptor (human, UniProt P30988 25-474)
T2 sequence (looked up): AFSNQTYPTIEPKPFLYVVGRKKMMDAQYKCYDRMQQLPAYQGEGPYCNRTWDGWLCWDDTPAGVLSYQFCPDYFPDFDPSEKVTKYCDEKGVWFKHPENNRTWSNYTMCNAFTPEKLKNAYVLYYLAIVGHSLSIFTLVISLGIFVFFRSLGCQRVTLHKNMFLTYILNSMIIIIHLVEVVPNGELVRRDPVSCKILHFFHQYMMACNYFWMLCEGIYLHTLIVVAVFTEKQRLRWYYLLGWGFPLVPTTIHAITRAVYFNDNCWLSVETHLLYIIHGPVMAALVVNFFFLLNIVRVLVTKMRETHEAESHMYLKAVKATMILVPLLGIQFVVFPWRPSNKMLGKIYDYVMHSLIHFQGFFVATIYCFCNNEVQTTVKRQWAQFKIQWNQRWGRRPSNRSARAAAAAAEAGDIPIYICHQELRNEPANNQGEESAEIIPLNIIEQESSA


Key:
[1] = target: T1, human amylin receptor (amylin 3(a) …); test: cell-based or functional assay
[2] = target: T2, human calcitonin receptor; test: cell-based or functional assay

hAmylin-R funct. EC50 (pM) [1] [pM]	Ratio hCT/hAmylin funct. [2]	hCTR funct. EC50 (pM) [2] [pM]	Binder
146	24.9	3640	K([γGlu-C20 diacid])CNTATCATQRLADFLRHSSPNFGAIPSSTNVGPRTY-NH2 (disulfide 2-7; N-terminus assumed; SMILES CC[C@H](C)[C@H](NC(=O)[C@H](C)NC(=O)CNC(=O)[C@H](Cc1ccccc1)NC(=O)[C@H](CC(N)=O)NC(=O)[C@@H]1CCCN1C(=O)[C@H](CO)NC(=O)[C@H](CO)NC(=O)[C@H](Cc1c[nH]cn1)NC(=O)[C@H](CCCNC(=N)N)NC(=O)[C@H](CC(C)C)NC(=O)[C@H](Cc1ccccc1)NC(=O)[C@H](CC(=O)O)NC(=O)[C@H](C)NC(=O)[C@H](CC(C)C)NC(=O)[C@H](CCCNC(=N)N)NC(=O)[C@H](CCC(N)=O)NC(=O)[C@@H](NC(=O)[C@H](C)NC(=O)[C@@H]1CSSC[C@H](NC(=O)[C@@H](N)CCCCNC(=O)CC[C@H](NC(=O)CCCCCCCCCCCCCCCCCCC(=O)O)C(=O)O)C(=O)N[C@@H](CC(N)=O)C(=O)N[C@@H]([C@@H](C)O)C(=O)N[C@@H](C)C(=O)N[C@@H]([C@@H](C)O)C(=O)N1)[C@@H](C)O)C(=O)N1CCC[C@H]1C(=O)N[C@@H](CO)C(=O)N[C@@H](CO)C(=O)N[C@H](C(=O)N[C@@H](CC(N)=O)C(=O)N[C@H](C(=O)NCC(=O)N1CCC[C@H]1C(=O)N[C@@H](CCCNC(=N)N)C(=O)N[C@H](C(=O)N[C@@H](Cc1ccc(O)cc1)C(N)=O)[C@@H](C)O)C(C)C)[C@@H](C)O)
333	26	8660	K([γGlu-γGlu-C20 diacid])CNTATCATQRLANFLRHSSPNFGAIPSSTPVGPRTY-NH2 (disulfide 2-7; N-terminus assumed; SMILES CC[C@H](C)[C@H](NC(=O)[C@H](C)NC(=O)CNC(=O)[C@H](Cc1ccccc1)NC(=O)[C@H](CC(N)=O)NC(=O)[C@@H]1CCCN1C(=O)[C@H](CO)NC(=O)[C@H](CO)NC(=O)[C@H](Cc1c[nH]cn1)NC(=O)[C@H](CCCNC(=N)N)NC(=O)[C@H](CC(C)C)NC(=O)[C@H](Cc1ccccc1)NC(=O)[C@H](CC(N)=O)NC(=O)[C@H](C)NC(=O)[C@H](CC(C)C)NC(=O)[C@H](CCCNC(=N)N)NC(=O)[C@H](CCC(N)=O)NC(=O)[C@@H](NC(=O)[C@H](C)NC(=O)[C@@H]1CSSC[C@H](NC(=O)[C@@H](N)CCCCNC(=O)CC[C@H](NC(=O)CC[C@H](NC(=O)CCCCCCCCCCCCCCCCCCC(=O)O)C(=O)O)C(=O)O)C(=O)N[C@@H](CC(N)=O)C(=O)N[C@@H]([C@@H](C)O)C(=O)N[C@@H](C)C(=O)N[C@@H]([C@@H](C)O)C(=O)N1)[C@@H](C)O)C(=O)N1CCC[C@H]1C(=O)N[C@@H](CO)C(=O)N[C@@H](CO)C(=O)N[C@H](C(=O)N1CCC[C@H]1C(=O)N[C@H](C(=O)NCC(=O)N1CCC[C@H]1C(=O)N[C@@H](CCCNC(=N)N)C(=O)N[C@H](C(=O)N[C@@H](Cc1ccc(O)cc1)C(N)=O)[C@@H](C)O)C(C)C)[C@@H](C)O)
130	13.3	1730	K([γGlu-C20 diacid])CNTATCATQRLAHFLRHSSPNFGAIPSSTNVGHNTY-NH2 (disulfide 2-7; N-terminus assumed; SMILES CC[C@H](C)[C@H](NC(=O)[C@H](C)NC(=O)CNC(=O)[C@H](Cc1ccccc1)NC(=O)[C@H](CC(N)=O)NC(=O)[C@@H]1CCCN1C(=O)[C@H](CO)NC(=O)[C@H](CO)NC(=O)[C@H](Cc1c[nH]cn1)NC(=O)[C@H](CCCNC(=N)N)NC(=O)[C@H](CC(C)C)NC(=O)[C@H](Cc1ccccc1)NC(=O)[C@H](Cc1c[nH]cn1)NC(=O)[C@H](C)NC(=O)[C@H](CC(C)C)NC(=O)[C@H](CCCNC(=N)N)NC(=O)[C@H](CCC(N)=O)NC(=O)[C@@H](NC(=O)[C@H](C)NC(=O)[C@@H]1CSSC[C@H](NC(=O)[C@@H](N)CCCCNC(=O)CC[C@H](NC(=O)CCCCCCCCCCCCCCCCCCC(=O)O)C(=O)O)C(=O)N[C@@H](CC(N)=O)C(=O)N[C@@H]([C@@H](C)O)C(=O)N[C@@H](C)C(=O)N[C@@H]([C@@H](C)O)C(=O)N1)[C@@H](C)O)C(=O)N1CCC[C@H]1C(=O)N[C@@H](CO)C(=O)N[C@@H](CO)C(=O)N[C@H](C(=O)N[C@@H](CC(N)=O)C(=O)N[C@H](C(=O)NCC(=O)N[C@@H](Cc1c[nH]cn1)C(=O)N[C@@H](CC(N)=O)C(=O)N[C@H](C(=O)N[C@@H](Cc1ccc(O)cc1)C(N)=O)[C@@H](C)O)C(C)C)[C@@H](C)O, also called compound 81)
146		3880	K([γGlu-C20 diacid])CNTATCATQRLAHFLRHSSPNFGAIPSSTNVGRNTY-NH2 (disulfide 2-7; N-terminus assumed; SMILES CC[C@H](C)[C@H](NC(=O)[C@H](C)NC(=O)CNC(=O)[C@H](Cc1ccccc1)NC(=O)[C@H](CC(N)=O)NC(=O)[C@@H]1CCCN1C(=O)[C@H](CO)NC(=O)[C@H](CO)NC(=O)[C@H](Cc1c[nH]cn1)NC(=O)[C@H](CCCNC(=N)N)NC(=O)[C@H](CC(C)C)NC(=O)[C@H](Cc1ccccc1)NC(=O)[C@H](Cc1c[nH]cn1)NC(=O)[C@H](C)NC(=O)[C@H](CC(C)C)NC(=O)[C@H](CCCNC(=N)N)NC(=O)[C@H](CCC(N)=O)NC(=O)[C@@H](NC(=O)[C@H](C)NC(=O)[C@@H]1CSSC[C@H](NC(=O)[C@@H](N)CCCCNC(=O)CC[C@H](NC(=O)CCCCCCCCCCCCCCCCCCC(=O)O)C(=O)O)C(=O)N[C@@H](CC(N)=O)C(=O)N[C@@H]([C@@H](C)O)C(=O)N[C@@H](C)C(=O)N[C@@H]([C@@H](C)O)C(=O)N1)[C@@H](C)O)C(=O)N1CCC[C@H]1C(=O)N[C@@H](CO)C(=O)N[C@@H](CO)C(=O)N[C@H](C(=O)N[C@@H](CC(N)=O)C(=O)N[C@H](C(=O)NCC(=O)N[C@@H](CCCNC(=N)N)C(=O)N[C@@H](CC(N)=O)C(=O)N[C@H](C(=O)N[C@@H](Cc1ccc(O)cc1)C(N)=O)[C@@H](C)O)C(C)C)[C@@H](C)O, also called compound 85)
425	13.1	5580	K([γGlu-C20 diacid])CNTATCATQRLAEFLRHSSPNFGAIPSSTNVGSHTY-NH2 (disulfide 2-7; N-terminus assumed; SMILES CC[C@H](C)[C@H](NC(=O)[C@H](C)NC(=O)CNC(=O)[C@H](Cc1ccccc1)NC(=O)[C@H](CC(N)=O)NC(=O)[C@@H]1CCCN1C(=O)[C@H](CO)NC(=O)[C@H](CO)NC(=O)[C@H](Cc1c[nH]cn1)NC(=O)[C@H](CCCNC(=N)N)NC(=O)[C@H](CC(C)C)NC(=O)[C@H](Cc1ccccc1)NC(=O)[C@H](CCC(=O)O)NC(=O)[C@H](C)NC(=O)[C@H](CC(C)C)NC(=O)[C@H](CCCNC(=N)N)NC(=O)[C@H](CCC(N)=O)NC(=O)[C@@H](NC(=O)[C@H](C)NC(=O)[C@@H]1CSSC[C@H](NC(=O)[C@@H](N)CCCCNC(=O)CC[C@H](NC(=O)CCCCCCCCCCCCCCCCCCC(=O)O)C(=O)O)C(=O)N[C@@H](CC(N)=O)C(=O)N[C@@H]([C@@H](C)O)C(=O)N[C@@H](C)C(=O)N[C@@H]([C@@H](C)O)C(=O)N1)[C@@H](C)O)C(=O)N1CCC[C@H]1C(=O)N[C@@H](CO)C(=O)N[C@@H](CO)C(=O)N[C@H](C(=O)N[C@@H](CC(N)=O)C(=O)N[C@H](C(=O)NCC(=O)N[C@@H](CO)C(=O)N[C@@H](Cc1c[nH]cn1)C(=O)N[C@H](C(=O)N[C@@H](Cc1ccc(O)cc1)C(N)=O)[C@@H](C)O)C(C)C)[C@@H](C)O)
376	17	6380	K([γGlu-C20 diacid])CNTATCATQRLAEFLRHSSPNFGAIPSSTNVGPRTY-NH2 (disulfide 2-7; N-terminus assumed; SMILES CC[C@H](C)[C@H](NC(=O)[C@H](C)NC(=O)CNC(=O)[C@H](Cc1ccccc1)NC(=O)[C@H](CC(N)=O)NC(=O)[C@@H]1CCCN1C(=O)[C@H](CO)NC(=O)[C@H](CO)NC(=O)[C@H](Cc1c[nH]cn1)NC(=O)[C@H](CCCNC(=N)N)NC(=O)[C@H](CC(C)C)NC(=O)[C@H](Cc1ccccc1)NC(=O)[C@H](CCC(=O)O)NC(=O)[C@H](C)NC(=O)[C@H](CC(C)C)NC(=O)[C@H](CCCNC(=N)N)NC(=O)[C@H](CCC(N)=O)NC(=O)[C@@H](NC(=O)[C@H](C)NC(=O)[C@@H]1CSSC[C@H](NC(=O)[C@@H](N)CCCCNC(=O)CC[C@H](NC(=O)CCCCCCCCCCCCCCCCCCC(=O)O)C(=O)O)C(=O)N[C@@H](CC(N)=O)C(=O)N[C@@H]([C@@H](C)O)C(=O)N[C@@H](C)C(=O)N[C@@H]([C@@H](C)O)C(=O)N1)[C@@H](C)O)C(=O)N1CCC[C@H]1C(=O)N[C@@H](CO)C(=O)N[C@@H](CO)C(=O)N[C@H](C(=O)N[C@@H](CC(N)=O)C(=O)N[C@H](C(=O)NCC(=O)N1CCC[C@H]1C(=O)N[C@@H](CCCNC(=N)N)C(=O)N[C@H](C(=O)N[C@@H](Cc1ccc(O)cc1)C(N)=O)[C@@H](C)O)C(C)C)[C@@H](C)O)
101	14.4	1450	K([γGlu-C20 diacid])CNTATCATQRLAEFLRHSSPNFGAIPSSTNVGPHTY-NH2 (disulfide 2-7)
